Measured values taken from patent publication EP2019137A1.

Target: wild-type SPW1 protein (SUPERWOMAN1, AP3-type class-B MADS-box protein of rice), M, I and K domains, yeast two-hybrid construct (rice (Oryza sativa))
Experiment: yeast two-hybrid, LacZ reporter

binding relative to OsMADS2wt with SPW1^wt (fold of OsMADS2wt-SPW1^wt binding): 0.5
Substance: V45T mutant-type protein of OsMADS2, M, I and K domains, yeast two-hybrid construct
